T1: Human TNFR2-His (Sino 10417-H08H) (human, UniProt P20333 23-257)
T1 construct: Bought protein; also called recombinant human TNFR2 protein; not shown: His tag
T1 sequence (looked up): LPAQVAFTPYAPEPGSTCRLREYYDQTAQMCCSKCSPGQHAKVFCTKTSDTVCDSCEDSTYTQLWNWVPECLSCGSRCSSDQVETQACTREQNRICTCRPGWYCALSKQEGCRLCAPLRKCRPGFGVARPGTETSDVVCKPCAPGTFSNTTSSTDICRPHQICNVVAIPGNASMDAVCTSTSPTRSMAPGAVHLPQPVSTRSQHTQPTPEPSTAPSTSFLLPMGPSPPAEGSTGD

T2: human TNFR2 on the surface of CHO-TNFR2 cells (human, UniProt P20333 23-461)
T2 construct: whole, on cells
T2 sequence (looked up): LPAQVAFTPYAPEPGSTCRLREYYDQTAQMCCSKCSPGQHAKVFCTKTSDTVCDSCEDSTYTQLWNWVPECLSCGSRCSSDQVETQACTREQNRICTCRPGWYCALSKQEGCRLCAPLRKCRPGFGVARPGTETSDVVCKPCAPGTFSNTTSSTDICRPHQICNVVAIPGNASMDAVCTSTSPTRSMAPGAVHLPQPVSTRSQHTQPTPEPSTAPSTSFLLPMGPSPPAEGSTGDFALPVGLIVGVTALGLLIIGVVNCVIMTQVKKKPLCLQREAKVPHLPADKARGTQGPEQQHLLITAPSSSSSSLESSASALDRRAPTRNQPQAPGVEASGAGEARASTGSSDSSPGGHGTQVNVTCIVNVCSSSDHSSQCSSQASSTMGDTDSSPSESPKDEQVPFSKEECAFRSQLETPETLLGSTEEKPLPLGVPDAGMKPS


Tests used:
[1] = molecular target: T1, Human TNFR2-His (Sino 10417-H08H); experiment: ELISA, human TNFR2-His coated; EC50 against 001-WT
Description: The test humanized antibody against TNFR2 (as described in Example 1, the antibody was comprised of variable regions linked to IgG-Fc; the WT chimeric antibody also adopted the IgG-Fc structure) was subjected to 3.33-fold gradient dilution, loaded with 100 μl/well, and incubated with shaking at room temperature for 1.5 hours. The plate was washed, and then a working solution of murine anti-human IgG Fc-HRP (diluted at 1:10000) was added, loaded with 100 μl/well, and incubated with shaking at room temperature for 1.0 hour. The plate was washed again, and then the substrate TMB of HRP was added to develop colour. A stop solution was added to stop the reaction, and then a microplate reader (MD 13) was used to read the absorbance value. The binding curve of an antibody was drawn with antibody concentration as the abscissa and corresponding OD value as the ordinate, and fitted with four parameters (GraphPad Prism9) to calculate the EC50 value. The smaller the EC50 value, the stronger the binding ability of an antibody to human/cynomolgus monkey TNFR2. The binding effect of a humanized antibody was normalized to its corresponding human-murine chimeric antibody WT (see SEQ ID NOs: 38-43 for the sequence). The higher the percentage value, the better the binding effect of the humanized antibody. The results of binding of an anti-TNFR2 antibody to a human TNFR2 protein are shown in FIG. 1 and Table 4, and the results of binding of an anti-TNFR2 antibody to cynomolgus monkey TNFR2 are shown in FIG. 2 and Table 4.

[2] = molecular target: T2, human TNFR2 on the surface of CHO-TNFR2 …; experiment: competition flow cytometry on CHO-TNFR2 cells, competitor TNFα-biotin; IC50 against 001-WT
Description: CHO stable cells highly expressing human TNFR2 were used for the experiment (the same as CHO-TNFR2 in Example 4). The CHO-TNFR2 cells were digested, washed twice with DPBS, then stained with Live/Dead (L/D) (20 minutes at room temperature), and plated at a density of 1×10⁵ cells/50 μl/well. A test anti-TNFR2 antibody was diluted to 6 μg/ml with a staining buffer as the starting concentration: the antibody was subjected to 3.33-fold gradient dilution, with a total of 7 concentration points. The diluted antibody was added to the plated cells at 50 μl/well, and the mixture was mixed well by gentle pipetting, and incubated at 4° C. for 30 minutes. Then the diluted 100 ng/ml of human TNFα-biotin was added at 100 μl/well, and the mixture was mixed well by gentle pipetting, and then incubated at 4° C. for 30 minutes. The mixture was washed twice with a staining buffer, and then 0.12 μg/ml PE-streptavidin (BioLegend, Cat #405204) was added at 100 μl/well; the resulting mixture was incubated at 4° C. for 30 minutes. The mixture was washed twice with a staining buffer, and then 150 μl of staining buffer was added to resuspend the cells; signals were detected by a flow cytometer (Thermo Attune NxT). The inhibitory curve of an antibody was drawn with antibody concentration as the abscissa and corresponding MFI value as the ordinate, and fitted with four parameters (GraphPad Prism9) to calculate the IC50 value. The smaller the IC50 value, the stronger the ability of an antibody to inhibit the binding of human TNFα to human TNFR2. The blocking effect of a humanized antibody was normalized to its corresponding human-murine chimeric WT antibody. The higher the percentage value, the better the inhibitory effect of the humanized antibody.

Row | Binder | % Relative activity (WT antibody/test antibody) [1] [%] | % Relative activity (WT antibody/test antibody) [2] [%]
1 | 001-Hu5 (antibody, V domains shown, Humanized form of #001; also called VH1 + VL4) VH: EVQLVESGGGLVQPGGSLRLSCAASGFAFSTYDLSWVRQAPGKGLEWVAYINNGGISTYYSDTVKGRFTISRDNAKNTLYLQMNSLRAEDTAVYYCVRGPFYGSANYFDYWGQGTLVTVSS VL: DIQMTQSPSSLSASVGDRVTITCRTSESIYSNLPWYQQKPGKSPKLLVYDATKLAEGVPSRFSGSGSGTDYTLTISSLQPEDFATYYCQHFWVTPWTFGQGTKVEIK | 100 | 86.2
2 | 001-Hu1 (antibody, V domains shown, Humanized form of #001; also called VH1 + VL1) VH: EVQLVESGGGLVQPGGSLRLSCAASGFAFSTYDLSWVRQAPGKGLEWVAYINNGGISTYYSDTVKGRFTISRDNAKNTLYLQMNSLRAEDTAVYYCVRGPFYGSANYFDYWGQGTLVTVSS VL: DIQMTQSPSSLSASVGDRVTITCRTSESIYSNLPWYQQKPGKAPKLLLYDATKLAEGVPSRFSGSGSGTDYTLTISSLQPEDFATYYCQHFWVTPWTFGQGTKVEIK | 104 | 98.3
3 | 001-Hu2 (antibody, V domains shown, Humanized form of #001; also called VH2 + VL2) VH: EVQLVESGGGLVQPGGSLRLSCAASGFAFSTYDLSWVRQAPGKGLEWVAYINNGGISTYYSDTVKGRFTISRDNAKNSLYLQMNSLRAEDTAVYYCVRGPFYGSANYFDYWGQGTLVTVSS VL: DIQMTQSPSSLSASVGDRVTITCRTSESIYSNLPWYQQKPGKSPKLLIYDATKLAEGVPSRFSGSGSGTDFTLTISSLQPEDFATYYCQHFWVTPWTFGQGTKVEIK | 102 | 84.3

Results, then the binder that gave them:

Row | % Relative activity (WT antibody/test antibody) [1] [%] | % Relative activity (WT antibody/test antibody) [2] [%] | Binder
4 | 101 | 100 | 001-Hu3 (antibody, V domains shown, Humanized form of #001; also called VH1 + VL3) VH: EVQLVESGGGLVQPGGSLRLSCAASGFAFSTYDLSWVRQAPGKGLEWVAYINNGGISTYYSDTVKGRFTISRDNAKNTLYLQMNSLRAEDTAVYYCVRGPFYGSANYFDYWGQGTLVTVSS VL: DIQMTQSPSSLSASVGDRVTITCRTSESIYSNLPWYQQKPGKAPKLLIYDATKLAEGVPSRFSGSGSGTDYTLTISSLQPEDFATYYCQHFWVTPWTFGQGTKVEIK
5 | 109 | 92.3 | 001-Hu4 (antibody, V domains shown, Humanized form of #001; also called VH2 + VL4) VH: EVQLVESGGGLVQPGGSLRLSCAASGFAFSTYDLSWVRQAPGKGLEWVAYINNGGISTYYSDTVKGRFTISRDNAKNSLYLQMNSLRAEDTAVYYCVRGPFYGSANYFDYWGQGTLVTVSS VL: DIQMTQSPSSLSASVGDRVTITCRTSESIYSNLPWYQQKPGKSPKLLVYDATKLAEGVPSRFSGSGSGTDYTLTISSLQPEDFATYYCQHFWVTPWTFGQGTKVEIK

From patent publication US20240109974A1 (SHANDONG SIMCERE BIOPHARMACEUTICAL, published 2024)
